{
  "source": "patent US6333189A",
  "about": "“Method of making an electrotransport device” (ALZA Corporation, priority 1997, dated 2001)",
  "key": {"[1]": {"settings": "in vitro skin permeation; cited from earlier work"}, "[2]": {"settings": "in vitro and in vivo studies; cited from earlier work"}, "[3]": {"test_system": "PTH receptor (rat osteosarcoma cell line UMR106)", "experiment": "adenylate cyclase stimulation / cAMP in UMR106 cells (PTH receptor activation)", "type": "cell-based", "settings": "for EC50: cAMP, 5 minutes, 1 mM IBMX, read-out: EC-50 (effective concentration)", "procedure": "The peptide was then desalted and partially purified on a SepPak column. Individual peaks were isolated and analyzed by electrospray mass spectrometry to determine the composition.\nPTH concentrations were determined by OD280 using an extinction coefficient of 6600 for the recombinant peptide and 5500 for the synthetic peptide. […] Activation of the PTH receptor leads to an intracellular rise in cAMP concentration.\nThe UMR106 cells were seeded at about 2.5×10^5 per well in a 48 well dish and allowed to grow to confluence. Assays were performed on cells 3-5 days postconfluence. The media (Dulbecco's modified Eagle's medium, DMEM, with fetal calf serum) was removed, and 1 mL of fresh media was applied. PTH (recombinant or synthetic) at various concentrations and 3-isobutyl-1-methyl xanthine (IBMX) at 1 mM final concentration were then added to each well of the plate, which was then incubated for 5 minutes at room temperature. The media was then removed and the cells quickly washed with ice cold PBS. The cells were then extracted twice with 1 mL of absolute ethanol. The two extractions were combined and the ethanol removed by evaporation. The extract was then redissolved in 1 mL of scintillation proximity buffer (SPA buffer) (Amersham, Arlington Heights, Ill.). The cAMP concentration was determined by assay using a scintillation proximity assay (SPA) kit available from Amersham."}, "[4]": {"experiment": "Circular dichroism in varying trifluoroethanol concentrations, PTH analogs", "type": "physicochemical", "design": "[θ]222 (mean residue ellipticity): unit not given here", "settings": "for [θ]222 (mean residue ellipticity): pH 6.5 10 mM cacodylate, 20° C; for helicity: 30% (v/v) TFE", "procedure": "The trifluoroethanol (TFE) circular dichroism studies were done using an AVIV Associates, Inc. Model 62DS Circular Dichroism Spectrometer. Protein concentrations were determined from absorbance readings using calculated extinction coefficients for the analogs in 10 mM ionic buffer. TFE titrations were done from 0 to 50% TFE, scanning from 250 to 200 nm at 20° C. for each TFE sample."}, "[5]": {"experiment": "Stability when incubated with stripped stratum corneum", "type": "in vitro ADME, human"}, "[6]": {"experiment": "In vitro electrotransport flux of the PTH analogs", "settings": "retro-inverso versions, 1 mM, pH 5.0, 0.1 mA/cm^2, 32° C, BSA/Tween 20 receptor"}, "PTH receptor [7]": {"molecular_target": "T1, PTH receptor (rat, UniProt P25961)"}, "PTH receptor (rat)": {"molecular_target": "PTH receptor (rat) (UniProt P25961)", "sequence (P25961 27-591)": "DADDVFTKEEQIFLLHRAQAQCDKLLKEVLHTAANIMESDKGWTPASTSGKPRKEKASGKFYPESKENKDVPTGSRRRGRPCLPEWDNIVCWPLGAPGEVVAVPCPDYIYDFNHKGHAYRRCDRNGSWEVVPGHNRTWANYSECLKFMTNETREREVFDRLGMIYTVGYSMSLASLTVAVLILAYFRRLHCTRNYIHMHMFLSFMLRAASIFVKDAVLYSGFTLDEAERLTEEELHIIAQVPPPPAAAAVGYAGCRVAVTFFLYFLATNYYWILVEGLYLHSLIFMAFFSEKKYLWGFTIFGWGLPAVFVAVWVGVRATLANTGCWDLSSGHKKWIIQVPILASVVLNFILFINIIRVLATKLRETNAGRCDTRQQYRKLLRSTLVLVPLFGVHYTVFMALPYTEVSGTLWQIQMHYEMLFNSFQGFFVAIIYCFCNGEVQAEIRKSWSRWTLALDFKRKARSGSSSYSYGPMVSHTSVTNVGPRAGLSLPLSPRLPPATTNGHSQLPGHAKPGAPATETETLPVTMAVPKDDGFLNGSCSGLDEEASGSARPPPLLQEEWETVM"}, "PTH receptor [8]": {"molecular_target": "T1, PTH receptor", "experiment": "Kd reported in the PTH analog activity assay on UMR106 cells; the method used for the Kd is not described"}},
  "note": "Ends that are not written are not given here.",
  "data": [
    {"molecule": "NC(=O)[C@@H]1CCCN1C(=O)[C@H](Cc1cnc[nH]1)NC(=O)[C@@H]1CCC(=O)N1", "note": "[thyrotropin releasing hormone]", "values": [
      {"measurement": "electrotransport flux compared with passive diffusional flux", "setting": "[1]", "result": "higher than passive diffusional flux"}
    ]},
    {"molecule": "NC(=O)CC[C@@H]1NC(=O)[C@H](Cc2ccccc2)NC(=O)[C@H](Cc2ccc(O)cc2)NC(=O)[C@@H](N)CSSC[C@@H](C(=O)N2CCC[C@H]2C(=O)N[C@@H](CCCN=C(N)N)C(=O)NCC(N)=O)NC(=O)[C@H](CC(N)=O)NC1=O", "note": "[vasopressin]", "values": [
      {"measurement": "transdermal delivery via electrotransport", "setting": "[2]", "result": "possible"}
    ]},
    {"molecule": "PTH analog 1: FIG. 1B (SEQ ID NO:7): Met8Leu, Leu15Arg, Met18Leu, Glu19Arg, Glu22Arg, Gln29Lys, Phe34Tyr, homoserine lactone at the C-terminus", "values": [
      {"measurement": "EC50", "setting": "[3]; UMR106 cells", "result": 0.9, "unit": "nM"},
      {"measurement": "[θ]222 (mean residue ellipticity)", "setting": "[4]; 0% TFE", "result": -4205},
      {"measurement": "[θ]222 (mean residue ellipticity)", "setting": "[4]; 10% TFE", "result": -9333},
      {"measurement": "[θ]222 (mean residue ellipticity)", "setting": "[4]; 20% TFE", "result": -23098},
      {"measurement": "helicity", "setting": "[4]", "result": "about 80%"},
      {"measurement": "[θ]222 (mean residue ellipticity)", "setting": "[4]; 30% TFE", "result": -26334},
      {"measurement": "[θ]222 (mean residue ellipticity)", "setting": "[4]; 40% TFE", "result": -27580},
      {"measurement": "[θ]222 (mean residue ellipticity)", "setting": "[4]; 50% TFE", "result": -27705},
      {"measurement": "stability when incubated with stripped stratum corneum", "setting": "[5]", "result": "not stable"},
      {"measurement": "median mass flux (95% confidence interval)", "setting": "[6]; 95% CI: analog 1 0.1 to 0.7, analog 2 2.1 to 4.2", "result": 0.3, "unit": "μg cm^-2 h^-1"},
      {"measurement": "average mass flux ± sd", "setting": "[6]; sd: analog 1 ±2.3, analog 2 ±3.7", "result": 1.4, "unit": "μg cm^-2 h^-1"}
    ]},
    {"molecule": "PTH analog 3: amino acid sequence of FIG. 1D (SEQ ID NO:9); recombinantly synthesized (SVSEIQLMHNLGKHLNSMERPEWLRKKPQDVHNF)", "values": [
      {"measurement": "activity (ability to stimulate adenylate cyclase)", "setting": "[3]; UMR106 cells", "result": "no measurable activity"},
      {"measurement": "[θ]222 (mean residue ellipticity)", "setting": "[4]; 0% TFE", "result": -3867},
      {"measurement": "[θ]222 (mean residue ellipticity)", "setting": "[4]; 10% TFE", "result": -6479},
      {"measurement": "[θ]222 (mean residue ellipticity)", "setting": "[4]; 20% TFE", "result": -12329},
      {"measurement": "helicity", "setting": "[4]", "result": "about 15%"},
      {"measurement": "[θ]222 (mean residue ellipticity)", "setting": "[4]; 30% TFE", "result": -15161},
      {"measurement": "[θ]222 (mean residue ellipticity)", "setting": "[4]; 40% TFE", "result": -15191},
      {"measurement": "[θ]222 (mean residue ellipticity)", "setting": "[4]; 50% TFE", "result": -15395},
      {"measurement": "helix in the absence of the helix-inducing TFE (in words)", "setting": "[4]; no TFE", "result": "essentially devoid of helix"}
    ]},
    {"molecule": "Synthetic PTH having the wild-type sequence (ligand)", "values": [
      {"measurement": "stimulation of adenylate cyclase (intracellular cAMP, scintillation proximity assay) in UMR106 cells", "setting": "PTH receptor [7]", "result": 4.4, "unit": "nM"}
    ]},
    {"molecule": "Wild-type PTH: wild-type, parent PTH polypeptide, FIG. 1A (SEQ ID NO:6), 34 amino acid residues [reference compound]", "values": [
      {"measurement": "EC50", "setting": "[3]; UMR106 cells", "result": 4.4, "unit": "nM"}
    ]},
    {"molecule": "insulin: insulin, cited electrotransport study", "values": [
      {"measurement": "transdermal delivery via electrotransport", "setting": "[2]", "result": "possible"}
    ]},
    {"molecule": "RPTH: recombinant PTH (RPTH), HPLC purified or crude Sep-Pak purified (peptide, UniProt P01270 32-115, looked up) Parathyroid hormone: SVSEIQLMHNLGKHLNSMERVEWLRKKLQDVHNFVALGAPLAPRDAGSQRPRKKEDNVLVESHEKSLGEADKADVNVLTKAKSQ", "values": [
      {"measurement": "adenylate cyclase stimulatory ability, crude Sep-Pak purified vs HPLC purified", "setting": "[3]; crude Sep-Pak purified sample compared with HPLC purified RPTH", "result": "no significant difference in adenylate cyclase stimulatory ability"}
    ]},
    {"molecule": "SVSEIQLLHNLGKHRNSLRRVRWLRKKLKDVHNY-{HSL} (ligand)", "note": "[PTH analog 1 (1-35)]", "values": [
      {"measurement": "stimulation of adenylate cyclase (intracellular cAMP, scintillation proximity assay) in UMR106 cells", "setting": "PTH receptor (rat)", "result": 0.9, "unit": "nM"},
      {"measurement": "Kd", "setting": "PTH receptor [8]", "result": 1.5, "unit": "nM"}
    ]}
  ]
}
